Here are results for two molecules from PMC11536930 (Nature structural & molecular biology, 2024).

For series [1], the target named is rat GluA2 flip(Q) isoform (unedited homotetrameric AMPA receptor), FLAG-tagged (rat, UniProt P19491-2 22-883). Kind of series: cryo-EM structure.
The series “cryo-EM structure” concerns the molecule itself. Kind of series: cryo-EM structure.

B1: rat TARPγ2 (stargazin) K52E/K53E (KKEE) mutant, 1D4-tagged (natural protein)
chain: MGLFDRGVQMLLTTVGAFAAFSLMTIAVGTDYWLYSRGVCKTKSVSENETSEENEEVMTHSGLWRTCCLEGNFKGLCKQIDHFPEDADYEADTAEYFLRAVRASSIFPILSVILLFMGGLCIAASEFYKTRHNIILSAGIFFVSAGLSNIIGIIVYISANAGDPSKSDSKKNSYSYGWSFYFGALSFIIAEMVGVLAVHMFIDRHKQLRATARATDYLQASAITRIPSYRYRYQRRSRSSSRSTEPSHSRDASPVGVKGFNTLPSTEISMYTLSRDPLKAATTPTATYNSDRDNSFLQVHNCIQKDSKDSLHANTANRRTTPV
Take B1: in series [1], the “stoichiometry N” value was 4 γ2(KKEE) per A2iQ tetramer.

B2: rat GluA2 flip(Q) isoform N619K mutant, FLAG-tagged (receptor, UniProt P19491-2 22-883, looked up)
chain: VSSNSIQIGGLFPRGADQEYSAFRVGMVQFSTSEFRLTPHIDNLEVANSFAVTNAFCSQFSRGVYAIFGFYDKKSVNTITSFCGTLHVSFITPSFPTDGTHPFVIQMRPDLKGALLSLIEYYQWDKFAYLYDSDRGLSTLQAVLDSAAEKKWQVTAINVGNINNDKKDETYRSLFQDLELKKERRVILDCERDKVNDIVDQVITIGKHVKGYHYIIANLGFTDGDLLKIQFGGANVSGFQIVDYDDSLVSKFIERWSTLEEKEYPGAHTATIKYTSALTYDAVQVMTEAFRNLRKQRIEISRRGNAGDCLANPAVPWGQGVEIERALKQVQVEGLSGNIKFDQNGKRINYTINIMELKTNGPRKIGYWSEVDKMVVTLTELPSGNDTSGLENKTVVVTTILESPYVMMKKNHEMLEGNERYEGYCVDLAAEIAKHCGFKYKLTIVGDGKYGARDADTKIWNGMVGELVYGKADIAIAPLTITLVREEVIDFSKPFMSLGISIMIKKPQKSKPGVFSFLDPLAYEIWMCIVFAYIGVSVVLFLVSRFSPYEWHTEEFEDGRETQSSESTNEFGIFNSLWFSLGAFMQQGCDISPRSLSGRIVGGVWWFFTLIIISSYTAKLAAFLTVERMVSPIESAEDLSKQTEIAYGTLDSGSTKEFFRRSKIAVFDKMWTYMRSAEPSVFVRTTAEGVARVRKSKGKYAYLLESTMNEYIEQRKPCDTMKVGGNLDSKGYGIATPKGSSLGTPVNLAVLKLSEQGVLDKLKNKWWYDKGECGAKDSGSKEKTSALSLSNVAGVFYILVGGLGLAMLVALIEFCYKSRAEAKRMKVAKNPQNINPSSSQNSQNFATYKEGYNVYGIESVKI
Turning to B2, the binding result in “cryo-EM structure” is on record as “binds”.
